Measurements: patent US20170015742A1 (published 2017)
Where a chain is given by its changes, count along the chain named. In names and notes the source's numbering stands. Blank lines part the entries; values can stand above or below the binder they belong to.

Columns and labels:
Human PDGF-BB, soluble = molecular target: T1, Human PDGF-BB, soluble (human, UniProt P01127 82-190); assay: SPR (Biacore), summary table
T1 construct: also called hPDGF-BB; soluble PDGF-BB
Protocol: (§1) Unreacted moieties on the biosensor surface were blocked with ethanolamine. For kinetic analysis, rate equations derived from the 1:1 Langmuir binding model were fitted simultaneously to multiple antigen injections (using global fit analysis) with the use of Scrubber 2 (BioLogic Software), Biacore Biaevaluation 4.0.1 software or Biacore T100 Evaluation software. Purified antibodies or DVD-Ig molecules were diluted in running buffer for capture across goat anti-human Fc reaction surfaces. Antibodies or DVD-Ig molecules to be captured as a ligand (1 μg/ml) were injected over reaction matrices at a flow rate of 10 μl/minute. During the assay, all measurements were referenced against the capture surface alone (i.e., with no captured antibody or DVD-Ig molecule). […] The equilibrium dissociation constant KD (M) of the reaction between antibodies and the target antigen was then calculated from the kinetic rate constants by the following formula: KD=Koff/Kₒₙ. Binding was recorded as a function of time and kinetic rate constants were calculated. In this assay, on-rates as fast as 10⁶M⁻¹s⁻¹ and off-rates as slow as 10⁻⁶ s⁻¹ could be measured.

Human VEGF-A 165 = molecular target: T2, Human VEGF-A 165 (human, UniProt P15692 207-395); assay: SPR (Biacore), summary table
T2 construct: also called hVEGF165
Protocol: as §1

Human VEGF-A 121 = molecular target: T3, Human VEGF-A 121 (human, UniProt P15692 207-395); assay: SPR (Biacore), summary table
T3 construct: also called hVEGF121
T3 sequence: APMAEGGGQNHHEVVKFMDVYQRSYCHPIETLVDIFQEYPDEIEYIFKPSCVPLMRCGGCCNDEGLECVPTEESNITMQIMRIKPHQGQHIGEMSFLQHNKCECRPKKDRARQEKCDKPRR
Protocol: as §1

Human VEGF-A 111 = molecular target: T4, Human VEGF-A 111 (human, UniProt P15692-10 27-137); assay: SPR (Biacore), summary table
T4 construct: not used because the names differ; also called hVEGF111
T4 sequence (looked up): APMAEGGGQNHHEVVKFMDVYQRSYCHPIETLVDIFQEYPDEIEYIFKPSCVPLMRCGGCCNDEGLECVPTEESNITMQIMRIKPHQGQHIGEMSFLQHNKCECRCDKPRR
Protocol: as §1

rat PDGF-B (PR-1645048) = molecular target: T5, rat PDGF-B (PR-1645048) (rat, UniProt Q05028 74-182); assay: SPR (Biacore), DVD-Ig captured by anti-human Fc, antigen injected
T5 construct: Lot 2235300; also called rat PDGF-BB; ratPDGF-BB
T5 sequence (Q05028 74-182 limits assumed): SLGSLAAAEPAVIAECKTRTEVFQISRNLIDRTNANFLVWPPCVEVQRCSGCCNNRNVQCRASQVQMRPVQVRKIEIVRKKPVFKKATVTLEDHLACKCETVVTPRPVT
Protocol: as §1

Recombinant rat FcRn = molecular target: T6, Recombinant rat FcRn (rat, UniProt P13599 23-298, limits assumed); assay: Biacore SPR; DVD-Ig immobilised by amine coupling, recombinant FcRn injected; 1:1 binding fit
T6 construct: FcRn is normally a heterodimer with beta-2-microglobulin
T6 sequence (looked up) 1: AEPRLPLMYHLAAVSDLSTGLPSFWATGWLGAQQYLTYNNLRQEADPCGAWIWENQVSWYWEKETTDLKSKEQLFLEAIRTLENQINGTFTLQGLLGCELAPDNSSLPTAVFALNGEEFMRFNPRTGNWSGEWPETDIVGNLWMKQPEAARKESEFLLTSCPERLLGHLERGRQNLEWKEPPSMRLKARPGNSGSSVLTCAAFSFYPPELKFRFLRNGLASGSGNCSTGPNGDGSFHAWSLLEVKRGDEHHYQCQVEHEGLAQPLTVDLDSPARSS
T6 sequence (looked up) 2: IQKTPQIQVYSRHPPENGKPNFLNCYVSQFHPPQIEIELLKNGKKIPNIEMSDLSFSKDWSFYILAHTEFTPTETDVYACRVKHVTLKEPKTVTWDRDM
Protocol: Human, cynomolgus, mouse, rat and rabbit recombinant FcRns were injected over all the flow cells at a flow rate of 50 μL/minute for 1 minute at a concentrations range of from 2.7 to 6000 nM (three fold serial dilution), followed by a 2 minute dissociation time. The surfaces were regenerated with an injection of 10 mM HCl at 100 μL/minute for 2 seconds followed by an injection of HBS-EP+, pH 7.4, at a flow rate of 50 μL/minute for 30 seconds over all four flow cells. Samples were prepared and run in two running buffer systems, pH 6.0 MES-EP+, and pH […]. Recombinant human FcγRIIIa V158 and rat and mouse FcRn data were fitted to 1:1 kinetic model. Recombinant human FcγRIIa R131 and FcγRIIa H131, FcγRIIIa F158, and recombinant human, cynomolgus and rabbit FcRn binding data were fitted to a steady state affinity model. Biacore T200 Evaluation Software version 2.0 was used to fit all the data.

[1] = molecular target: T7, Recombinant human FcγRIIIa V158, 6xHis-tagged (human, UniProt P08637 17-208, limits assumed); assay: Biacore SPR; His-tagged huFcγRIIIa 158V captured on anti-6xHis antibody, DVD-Ig injected; steady state fit
T7 construct: Captured through its 6xHis tag; also called huFcRIIIa 158V
T7 sequence (P08637 other isoform, or with tags, fused parts or gaps limits assumed): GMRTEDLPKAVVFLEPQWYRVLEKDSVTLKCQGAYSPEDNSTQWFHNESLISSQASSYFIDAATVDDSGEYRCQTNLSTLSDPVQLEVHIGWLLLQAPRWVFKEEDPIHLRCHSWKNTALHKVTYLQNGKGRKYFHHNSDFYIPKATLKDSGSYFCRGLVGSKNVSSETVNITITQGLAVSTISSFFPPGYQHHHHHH
Protocol: (§2) A CM5 chip (GE Healthcare, Pittsburgh, Pa.) with mouse anti-6×His antibodies (“6×His” disclosed as SEQ ID NO: 405) that were directly immobilized on the chip via amine coupling according to the GE Healthcare protocol to the density of 10000RU (all flow cells) was used for experiments. Human FcγRs were captured on flow cells 2, 3 and 4. Flow cell 1 was used as a reference surface. HBS-EP+ was used as the running buffer. […] The chip surfaces were regenerated with an injection of 10 mM glycine pH 1.5 at a flow rate of 100 μL/minute over all four flow cells after each cycle.
The binding of DVD-Ig molecules to FcRn from various species and the binding of DVD-Ig molecules to various FcγRs were characterized by Biacore using the method described in Example 1.2.

[2] = molecular target: T8, Recombinant human FcγRIIIa F158, 6xHis-tagged (human, UniProt P08637 17-208, limits assumed); assay: Biacore SPR; His-tagged human FcγR captured on anti-6xHis antibody, DVD-Ig injected
T8 construct: Captured through its 6xHis tag
T8 sequence (P08637 other isoform, or with tags, fused parts or gaps limits assumed): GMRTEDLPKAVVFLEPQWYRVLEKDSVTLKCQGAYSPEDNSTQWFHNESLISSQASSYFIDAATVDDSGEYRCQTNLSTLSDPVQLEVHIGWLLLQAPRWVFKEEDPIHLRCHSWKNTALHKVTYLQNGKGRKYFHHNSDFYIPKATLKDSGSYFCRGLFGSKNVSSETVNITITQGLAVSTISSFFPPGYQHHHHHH
Protocol: as §2

[3] = molecular target: T9, Recombinant human FcγRIIa R131, 6xHis-tagged (human, UniProt P12318 36-218, limits assumed); assay: as above
T9 construct: Captured through its 6xHis tag
T9 sequence: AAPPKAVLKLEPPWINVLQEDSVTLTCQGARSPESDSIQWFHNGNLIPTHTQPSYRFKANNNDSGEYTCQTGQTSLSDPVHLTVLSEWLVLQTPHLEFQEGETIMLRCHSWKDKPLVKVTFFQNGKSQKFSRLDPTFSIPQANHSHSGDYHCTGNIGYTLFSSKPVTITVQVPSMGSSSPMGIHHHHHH
Protocol: as §2

[4] = molecular target: T10, Recombinant human FcγRIIa H131, 6xHis-tagged (human, UniProt P12318 36-218, limits assumed); assay: as above
T10 construct: Captured through its 6xHis tag
T10 sequence: T9 sequence with R132H
Protocol: as §2

[5] = molecular target: T11, Recombinant human FcγRIIb, 6xHis-tagged (human, UniProt P31994 46-217, limits assumed); assay: as above
T11 construct: Captured through its 6xHis tag; also called huFcRIIb
T11 sequence: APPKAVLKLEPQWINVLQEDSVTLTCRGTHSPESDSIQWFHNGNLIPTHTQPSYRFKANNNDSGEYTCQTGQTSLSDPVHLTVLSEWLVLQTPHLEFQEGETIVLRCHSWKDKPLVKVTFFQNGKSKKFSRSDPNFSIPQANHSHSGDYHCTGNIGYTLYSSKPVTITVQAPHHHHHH
Protocol: as §2

Cynomolgus monkey VEGF-A = molecular target: T12, Cynomolgus monkey VEGF-A (cynomolgus monkey, UniProt P15692 207-395 (human entry)); assay: affinity KD as tabulated in Table 69; method not given
T12 construct: also called cyno VEGF
T12 sequence (P15692 other isoform, or with tags, fused parts or gaps limits assumed): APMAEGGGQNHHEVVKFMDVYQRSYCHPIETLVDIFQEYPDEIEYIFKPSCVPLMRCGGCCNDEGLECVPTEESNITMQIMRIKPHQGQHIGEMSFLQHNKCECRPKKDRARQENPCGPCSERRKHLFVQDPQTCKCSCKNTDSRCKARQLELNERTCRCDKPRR

Rabbit PDGF-BB = molecular target: T13, Rabbit PDGF-BB (rabbit, UniProt Q05028 74-182 (rat entry)); assay: as above
T13 construct: also called rab PDGF
T13 sequence (Q05028 74-182 limits assumed): as the sequence (Q05028 74-182 limits assumed) above

[6] = molecular target: T14, Cynomolgus monkey PDGF-BB (cynomolgus monkey, UniProt P01127 82-190 (human entry), limits assumed); assay: as above
T14 construct: Homodimer of B chains; also called cyno PDGF; cynoPDGF-BB
T14 chain: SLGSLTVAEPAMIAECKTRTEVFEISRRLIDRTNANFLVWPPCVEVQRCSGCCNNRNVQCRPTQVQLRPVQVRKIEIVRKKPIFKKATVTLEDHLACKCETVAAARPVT

Mouse PDGF-BB = molecular target: T15, Mouse PDGF-BB (mouse, UniProt P31240 82-190); assay: as above
T15 construct: Homodimer of B chains; also called mo PDGF; mPDGF-BB
T15 sequence (P31240 82-190 limits assumed): as the sequence (Q05028 74-182 limits assumed) above, with V83I, V102I counted along it

Rat PDGF-BB = molecular target: T16, Rat PDGF-BB (rat, UniProt Q05028 74-182); assay: as above
T16 construct: Homodimer of B chains
T16 sequence (Q05028 74-182 limits assumed): as the sequence (Q05028 74-182 limits assumed) above

T1 sequence (P01127 82-190 limits assumed): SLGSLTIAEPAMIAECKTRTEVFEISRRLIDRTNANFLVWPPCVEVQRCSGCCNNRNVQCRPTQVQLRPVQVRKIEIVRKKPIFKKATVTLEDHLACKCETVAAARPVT

Kd (Human PDGF-BB, soluble): 0.005 nM | Kd (Human VEGF-A 165): 0.065 nM | Kd (Human VEGF-A 121): 0.23 nM | Kd (Human VEGF-A 111): 0.29 nM | Kd (rat PDGF-B (PR-1645048)): ≤ 0.0052 nM | koff (rat PDGF-B (PR-1645048)): 5.2e-05 s⁻¹ | kon (rat PDGF-B (PR-1645048)): ≥ 1e+07 M⁻¹ s⁻¹
B1: 9E10.1-GS-33675 anti-VEGF/anti-PDGF DVD-Ig molecule (PR-1610561) (bispecific antibody, human IgG1, kappa, L234A L235A)
heavy: EIQLVQSGSELKKPGASVKVSCKASGYTFTNYGMYWVKQAPGQGLEYMGWIDTETGRPTYADDFKGRFVFSLDTSVSTAYLQISSLKAEDTAVYFCARWSGDTTGIRGPWFAYWGQGTLVTVSSGGGGSGGGGSEVTLRESGPALVKPTQTLTLTCTFSGFSLSTYGMGVGWIRQPPGKALEWLANIWWDDDKYYNPSLKNRLTISKDTSKNQVVLTMTNMDPVDTATYYCARIESSGPKYSFDYWGQGTMVTVSSASTKGPSVFPLAPSSKSTSGGTAALGCLVKDYFPEPVTVSWNSGALTSGVHTFPAVLQSSGLYSLSSVVTVPSSSLGTQTYICNVNHKPSNTKVDKKVEPKSCDKTHTCPPCPAPEAAGGPSVFLFPPKPKDTLMISRTPEVTCVVVDVSHEDPEVKFNWYVDGVEVHNAKTKPREEQYNSTYRVVSVLTVLHQDWLNGKEYKCKVSNKALPAPIEKTISKAKGQPREPQVYTLPPSREEMTKNQVSLTCLVKGFYPSDIAVEWESNGQPENNYKTTPPVLDSDGSFFLYSKLTVDKSRWQQGNVFSCSVMHEALHNAYTQKSLSLSPGK
light: DIRMTQSPSSLSASVGDRVTIECLASEDIYSDLAWYQQKPGKSPKLLIYNANGLQNGVPSRFSGSGSGTDYSLTISSLQPEDVATYFCQQYNYFPGTFGQGTKLEIKGGSGGGGSGGEIVLTQSPGTLSLSPGERATLSCRASSGSIWYSFVSWYQQKPGQAPRLLIYADDQRASGIPDRFSGSGSGTDFTLTISRLEPEDFAVYYCQSYGINIDVVFGGGTKVEIKRTVAAPSVFIFPPSDEQLKSGTASVVCLLNNFYPREAKVQWKVDNALQSGNSQESVTEQDSKDSTYSLSSTLTLSKADYEKHKVYACEVTHQGLSSPVTKSFNRGEC
notes: DVD-Ig: outer domain hBEW-9E10.1 (VEGF), inner domain CL-33675 (PDGF), linkers GS-H10 / GS-L10(dR); human IgG1 L234A, L235A, H435A / kappa; Lot 2213329; also called hu VEGF 9E10.1-GS-hu PDGF 33675 [hu IgG1/k]; LALA H435A

binding result (Recombinant rat FcRn): no binding (tested: FcRn 2.7 to 6000 nM) | Kd [1]: 11000 nM | Kd (Cynomolgus monkey VEGF-A): 0.065 nM | Kd (Rabbit PDGF-BB): 0.003 nM | Kd [6]: 0.0008 nM | Kd (Mouse PDGF-BB): 0.0003 nM | Kd (Rat PDGF-BB): 0.003 nM
B2: 9E10.1_GS_CL-33675 (PR-1610561), anti-VEGF-A/anti-PDGF-BB DVD-Ig, hu IgG1/k L234A L235A H435A (bispecific antibody)
heavy: B1 heavy
light: B1 light
notes: also called 9E10.1-GS-33675; hu VEGF 9E10.1-GS-hu PDGF 33675 [hu IgG1/k]; LALA H435A
binding result [2]: no binding (tested: DVD-Ig 31.25 to 4000 nM) | binding result [3]: no binding (tested: DVD-Ig 31.25 to 4000 nM) | binding result [4]: no binding (tested: DVD-Ig 31.25 to 4000 nM) | binding result [5]: no binding (tested: DVD-Ig 31.25 to 4000 nM)
